According to publication PMC9083366, “Brassinosteroid-Insensitive 1-Associated Receptor Kinase 1 Modulates Abscisic Acid Signaling by Inducing PYR1 Monomerization and Association With ABI1 in Arabidopsis” (Frontiers in Plant Science, 2022):
Residue numbers refer to the chain shown, from its start.

T1: GST-ABI1 (Arabidopsis thaliana, UniProt P49597 1-434)
T1 construct: ABI1 (ABA-Insensitive 1), clade A protein phosphatase 2C, Arabidopsis thaliana; also called ABA-Insensitive 1; not shown: GST, N-terminal, kept
T1 sequence (looked up): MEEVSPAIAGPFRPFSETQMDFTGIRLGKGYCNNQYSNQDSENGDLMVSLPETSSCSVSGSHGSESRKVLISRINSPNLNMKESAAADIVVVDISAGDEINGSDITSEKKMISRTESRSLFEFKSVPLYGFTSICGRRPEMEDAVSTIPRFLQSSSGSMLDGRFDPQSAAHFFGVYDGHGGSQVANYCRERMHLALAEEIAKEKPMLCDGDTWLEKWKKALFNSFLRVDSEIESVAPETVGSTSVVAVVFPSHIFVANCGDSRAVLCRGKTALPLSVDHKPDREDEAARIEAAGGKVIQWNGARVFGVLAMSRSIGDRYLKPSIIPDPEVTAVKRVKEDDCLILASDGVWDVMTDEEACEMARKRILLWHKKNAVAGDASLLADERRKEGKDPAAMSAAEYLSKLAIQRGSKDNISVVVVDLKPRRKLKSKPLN

B1: HIS-tagged PYR1 recombinant protein (natural protein, Arabidopsis thaliana, UniProt O49686 1-191, looked up)
chain: MPSELTPEERSELKNSIAEFHTYQLDPGSCSSLHAQRIHAPPELVWSIVRRFDKPQTYKHFIKSCSVEQNFEMRVGCTRDVIVISGLPANTSTERLDILDDERRVTGFSIIGGEHRLTNYKSVTTVHRFEKENRIWTVVLESYVVDMPEGNSEDDTRMFADTVVKLNLQKLATVAEAMARNSGDGSGSQVT
notes: PYR1 (PYRABACTIN …1), Arabidopsis thaliana, 191 amino acids; also called HIS-PYR1; PYRABACTIN …1; not shown: His, N-terminal, kept
B2: HIS-PYR1DD (phosphomimetic PYR1) (natural protein, Arabidopsis thaliana, UniProt O49686 1-191, looked up)
chain: B1 chain with T137D, S142D
notes: PYR1, Arabidopsis thaliana, 191 amino acids, T137 and S142 mutagenized to aspartic acid; not shown: His, N-terminal, kept

Biological target: T1, GST-ABI1
Test: pull-down; GST-ABI1 incubated with HIS-PYR1 variants in the absence or presence of 30 uM ABA; western blot with anti-GST and anti-HIS
Details: both partners purified

Binder | binding result
B1 | binds
B2 | binds
